Experimental data published in paper PMC9512048, “Characterization of a xylitol dehydrogenase from Aspergillus flavus and its application in L-xylulose production” (Frontiers in Bioengineering and Biotechnology, 2022).

T1: AfXDH (Aspergillus flavus, UniProt A0A7U2N396)
T1 construct: gene F9C07_11531; full length, 369 residues, 38,893 Da; 6xHis tag (printed as C-terminal, vector pQE80L); E. coli BL21 (DE3); monomer, 2 Zn per monomer
T1 sequence (A0A7U2N396 1-369): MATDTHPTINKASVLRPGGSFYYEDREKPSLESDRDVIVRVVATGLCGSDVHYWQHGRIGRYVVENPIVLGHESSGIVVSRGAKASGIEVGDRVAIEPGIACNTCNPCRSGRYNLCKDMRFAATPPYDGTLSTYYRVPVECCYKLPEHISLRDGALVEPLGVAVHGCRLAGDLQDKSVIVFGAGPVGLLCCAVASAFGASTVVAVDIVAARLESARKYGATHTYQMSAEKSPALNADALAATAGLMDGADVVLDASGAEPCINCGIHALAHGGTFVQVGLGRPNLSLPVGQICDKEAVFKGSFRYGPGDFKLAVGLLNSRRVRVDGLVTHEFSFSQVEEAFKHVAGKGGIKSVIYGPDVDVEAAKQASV


Legend:
[1] = biological target: T1, AfXDH; experiment: product inhibition of xylitol oxidation; assay type: biochemical; conditions: read-out: K i, NADH
[2] = substrate: OC[C@@H](O)[C@H](O)[C@@H](O)CO; experiment: NADH formation at A340, Michaelis-Menten fit; assay type: biochemical, Aspergillus flavus; conditions: NAD+, 20 mM Tris-glycine pH 9.5, 0.1 mM Zn2+, 16.9 in abstract and Table 2, but b45 prints 16.2 mM
From the text: (§1) NADH formation at A340, Michaelis-Menten fit on AfXDH

[3] = substrate: NC(=O)c1ccc[n+]([C@@H]2O[C@H](COP(=O)(O)OP(=O)(O)OC[C@H]3O[C@@H](n4cnc5c(N)ncnc54)[C@H](O)[C@@H]3O)[C@@H](O)[C@H]2O)c1; experiment: NADH formation at A340, Michaelis-Menten fit; assay type: biochemical, Aspergillus flavus; conditions: xylitol, 20 mM Tris-glycine pH 9.5, 0.1 mM Zn2+, 0.1-3 mM NAD+, b45 prints 0.15 mM, varied: cofactor
From the text: as §1

[4] = substrate: OC[C@@H](O)[C@@H](O)[C@H](O)[C@@H](O)CO; experiment: NADH formation at A340; assay type: biochemical, Aspergillus flavus; conditions: NAD+, pH 9.5, only in abstract, b45 prints 16.2 mM for xylitol, so order in abstract may be uncertain

Molecule	Ki [1]	Km [2]	kcat [2]	kcat/Km [2]	Km [3]	Km [4]
NC(=O)C1=CN([C@@H]2O[C@H](COP(=O)(O)OP(=O)(O)OC[C@H]3O[C@@H](n4cnc5c(N)ncnc54)[C@H](O)[C@@H]3O)[C@@H](O)[C@H]2O)C=CC1 [NADH]	250 µM					
AfXDH (Aspergillus flavus NRRL3357) (protein, full length, 369 residues, 38,893 Da; 6xHis tag (printed as C-terminal, vector pQE80L); E. coli BL21 (DE3); monomer, 2 Zn per monomer) MATDTHPTINKASVLRPGGSFYYEDREKPSLESDRDVIVRVVATGLCGSDVHYWQHGRIGRYVVENPIVLGHESSGIVVSRGAKASGIEVGDRVAIEPGIACNTCNPCRSGRYNLCKDMRFAATPPYDGTLSTYYRVPVECCYKLPEHISLRDGALVEPLGVAVHGCRLAGDLQDKSVIVFGAGPVGLLCCAVASAFGASTVVAVDIVAARLESARKYGATHTYQMSAEKSPALNADALAATAGLMDGADVVLDASGAEPCINCGIHALAHGGTFVQVGLGRPNLSLPVGQICDKEAVFKGSFRYGPGDFKLAVGLLNSRRVRVDGLVTHEFSFSQVEEAFKHVAGKGGIKSVIYGPDVDVEAAKQASV		16.9 mM	48.67 s⁻¹	2880 M⁻¹ s⁻¹	0.17 mM	16.2 mM
